US20250376536A1 (Bristol-Myers Squibb, published 2025)

Key:
FcγRIIA (CD32a) = target: T1, FcγRIIA (CD32a) (UniProt P12318 34-217, limits assumed); assay: SPR, Biacore S200, antibody captured on Protein A chip, FcγR as analyte
T1 sequence (looked up): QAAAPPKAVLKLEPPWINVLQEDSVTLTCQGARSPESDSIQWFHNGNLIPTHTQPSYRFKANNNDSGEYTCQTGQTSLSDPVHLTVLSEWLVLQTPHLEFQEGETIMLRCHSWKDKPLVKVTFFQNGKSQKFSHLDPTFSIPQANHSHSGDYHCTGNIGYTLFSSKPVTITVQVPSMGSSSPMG
Description: (§1) Binding of CD40.9H3×FAP.LP62 and the analog of RO7300490 to various Fc gamma receptors (FcγR1 (CD64), FcγRIIIA (CD16a), FcγRIIIB (CD16b), FcγRIIA (CD32a), FcγRIIB (CD32b)) was determined in an analyte/capture assay in vitro. Briefly, an SPR assay was performed using a Biacore S200 with a Biacore Series S Protein A chip (Cytiva). All antibodies were prepared at 4.0 μg/ml in 1×HBS-EP+ running buffer (Cytiva) and captured onto flow cells 2, 3, and 4 through a 60 second contact time at 10 μl/min. An analyte series of the FcγRs (BMS In-House Produced) were prepared at 10,000 nM in 1×HBS-EP+ with eight, three-fold dilutions. Kinetic measurements were conducted with a 120 second association followed by a 120 second dissociation at 30 μl/min. Surface regeneration was preformed by 60 second contact time of 50 mM Glycine pH 1.5 solution (Cytiva) at 30 μl/min. Data was processed in Biacore Insight Evaluation Version 5 (Cytiva). Sensorgrams were double referenced and globally fit to a 1:1 Langmuir model were applicable. Where 1:1 model was not sufficient to describe the interaction (fast-on and fast-off rates), steady state equilibrium fitting was used to determine the equilibrium constant.

FcγRIIIA (CD16a) = FcγRIIIA (CD16a) (UniProt P08637 17-208, limits assumed); assay: as above
Description: as §1

FcγRIIB (CD32b) = target: T2, FcγRIIB (CD32b) (UniProt P31994 43-217, limits assumed); assay: as above
T2 sequence (looked up): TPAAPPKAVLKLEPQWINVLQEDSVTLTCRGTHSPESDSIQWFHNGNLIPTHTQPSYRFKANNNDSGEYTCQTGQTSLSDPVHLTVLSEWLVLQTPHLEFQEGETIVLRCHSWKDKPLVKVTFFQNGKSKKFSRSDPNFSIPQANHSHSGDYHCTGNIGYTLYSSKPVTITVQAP
Description: as §1

FcγRIIIB (CD16b) = FcγRIIIB (CD16b) (UniProt O75015 17-200, limits assumed); assay: as above
Description: as §1

FcγRI (CD64) = target: T3, FcγRI (CD64) (UniProt P12314 16-288, limits assumed); assay: as above
T3 construct: also called FcγR1 (CD64); FcγR1
Description: as §1

[1] = target: cynomolgus (cyno) CD40 protein (cynomolgus monkey, UniProt G7PG38 21-193); assay: SPR
Description: CD40.9H3×FAP.LP62 and an analog of RO7300490 (see SEQ ID NOs: 39-42) binding to human and cynomolgus (cyno) CD40 and FAP was evaluated by surface plasmon resonance (SPR) using human and cyno CD40 and FAP proteins. […] The rates of association and dissociation of CD40.9H3×FAP.LP62 and the analog of RO7300490 to human CD40 and FAP are summarized in Table 2.

human FAP on cells = target: T4, human FAP on cells (human, UniProt Q12884 1-760); assay: binding to human FAP-positive HEK cells
T4 construct: also called FAP-positive HEK cells (human); human FAP-expressing HEK cells
T4 sequence: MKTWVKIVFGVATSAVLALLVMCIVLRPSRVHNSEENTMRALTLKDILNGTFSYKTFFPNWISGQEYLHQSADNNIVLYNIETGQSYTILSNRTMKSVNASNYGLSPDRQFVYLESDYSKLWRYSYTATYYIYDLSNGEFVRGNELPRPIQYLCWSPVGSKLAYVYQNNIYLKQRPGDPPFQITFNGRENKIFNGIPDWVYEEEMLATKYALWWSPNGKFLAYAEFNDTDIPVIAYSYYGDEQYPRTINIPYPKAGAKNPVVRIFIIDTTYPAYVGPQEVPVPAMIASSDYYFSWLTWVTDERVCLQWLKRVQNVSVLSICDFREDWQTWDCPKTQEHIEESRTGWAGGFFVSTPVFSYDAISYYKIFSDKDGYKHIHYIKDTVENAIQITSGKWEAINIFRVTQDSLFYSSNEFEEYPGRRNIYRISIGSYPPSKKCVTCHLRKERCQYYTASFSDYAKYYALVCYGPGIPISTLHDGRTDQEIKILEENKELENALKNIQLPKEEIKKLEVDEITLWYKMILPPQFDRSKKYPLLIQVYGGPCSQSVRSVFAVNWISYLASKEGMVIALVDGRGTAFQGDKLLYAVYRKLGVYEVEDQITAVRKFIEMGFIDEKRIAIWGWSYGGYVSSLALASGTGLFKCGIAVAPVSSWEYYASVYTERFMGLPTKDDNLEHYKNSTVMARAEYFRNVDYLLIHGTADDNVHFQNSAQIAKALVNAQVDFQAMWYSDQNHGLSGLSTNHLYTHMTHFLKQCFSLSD

human CD40 on cells [2] = target: T5, human CD40 on cells (human, UniProt P25942 21-277); assay: binding to human CD40-positive macrophages
T5 construct: Endogenous CD40 on human primary cells and Raji cells; also called CD40-positive macrophage; CD40-positive B cell

human CD40 on cells [3] = target: T5, human CD40 on cells; assay: binding to human CD40-positive B cells

T5 sequence (P25942 21-277): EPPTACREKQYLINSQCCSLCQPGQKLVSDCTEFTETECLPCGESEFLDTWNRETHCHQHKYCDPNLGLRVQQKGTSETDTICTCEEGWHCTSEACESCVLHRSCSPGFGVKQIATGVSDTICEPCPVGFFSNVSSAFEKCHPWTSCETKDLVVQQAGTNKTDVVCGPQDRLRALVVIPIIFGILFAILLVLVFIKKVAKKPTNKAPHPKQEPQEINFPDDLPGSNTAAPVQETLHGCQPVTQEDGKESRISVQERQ
T3 sequence (P12314 16-288 limits assumed): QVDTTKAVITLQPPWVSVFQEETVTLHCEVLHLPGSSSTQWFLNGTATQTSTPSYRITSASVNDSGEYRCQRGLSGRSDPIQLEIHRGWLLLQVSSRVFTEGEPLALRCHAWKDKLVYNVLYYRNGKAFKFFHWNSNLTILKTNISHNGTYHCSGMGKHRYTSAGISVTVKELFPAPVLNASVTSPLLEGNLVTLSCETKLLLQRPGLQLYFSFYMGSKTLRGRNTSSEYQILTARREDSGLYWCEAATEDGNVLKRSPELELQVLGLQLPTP
FcγRIIIA (CD16a), sequence (P08637 17-208 limits assumed): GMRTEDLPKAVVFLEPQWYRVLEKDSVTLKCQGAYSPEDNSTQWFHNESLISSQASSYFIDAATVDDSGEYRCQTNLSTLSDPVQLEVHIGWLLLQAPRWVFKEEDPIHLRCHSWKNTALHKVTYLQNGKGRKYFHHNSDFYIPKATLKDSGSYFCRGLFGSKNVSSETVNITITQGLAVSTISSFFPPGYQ
FcγRIIIB (CD16b), sequence (O75015 17-200 limits assumed): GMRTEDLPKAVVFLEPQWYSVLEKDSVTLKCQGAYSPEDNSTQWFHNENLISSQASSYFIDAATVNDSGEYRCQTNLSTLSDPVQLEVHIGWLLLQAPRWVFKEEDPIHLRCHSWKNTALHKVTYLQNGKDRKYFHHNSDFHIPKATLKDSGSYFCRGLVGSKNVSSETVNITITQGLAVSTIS

B1: CD40.9H3×FAP.LP62 bispecific antibody (bispecific antibody, human IgG1, kappa, L234A L235A)
heavy 1: EVQLVESGGGLVQPGGSLRLSCAASGFTFIGYSMNWVRQAPGKGLEWVSYISSYESTIYYADSVKGRFTISRDNAKNSLYLQMNSLRAEDTAVYYCARSRITLVRGVPRYFDLWGRGTLVTVSSASTKGPSVFPLAPSSKSTSGGTAALGCLVKDYFPEPVTVSWNSGALTSGVHTFPAVLQSSGLYSLSSVVTVPSSSLGTQTYICNVNHKPSNTKVDKKVEPKSCDKTHTCPPCPAPEAAGGPSVFLFPPKPKDTLMISRTPEVTCVVVSVSHEDPEVKFNWYVDGVEVHNAKTKPREEQYNSTYRVVSVLTVLHQDWLNGKEYKCKVSNKALPAPIEKTISKAKGQPREPQVYVLPPSREEMTKNQVSLLCLVKGFYPSDIAVEWESNGQPENNYLTWPPVLDSDGSFFLYSKLTVDKSRWQQGNVFSCSVMHEALHNHYTQKSLSLSPG
heavy 2: EVQLVESGGGLVQPGGSLRLSCAASGFTFIGYSMNWVRQAPGKGLEWVSYISSYESTIYYADSVKGRFTISRDNAKNSLYLQMNSLRAEDTAVYYCARSRITLVRGVPRYFDLWGRGTLVTVSSASTKGPSVFPLAPSSKSTSGGTAALGCLVKDYFPEPVTVSWNSGALTSGVHTFPAVLQSSGLYSLSSVVTVPSSSLGTQTYICNVNHKPSNTKVDKKVEPKSCDKTHTCPPCPAPEAAGGPSVFLFPPKPKDTLMISRTPEVTCVVVSVSHEDPEVKFNWYVDGVEVHNAKTKPREEQYNSTYRVVSVLTVLHQDWLNGKEYKCKVSNKALPAPIEKTISKAKGQPREPQVYVYPPSREEMTKNQVSLTCLVKGFYPSDIAVEWESNGQPENNYKTTPPVLDSDGSFALVSKLTVDKSRWQQGNVFSCSVMHEALHNHYTQKSLSLSPGGGSGGGGSGGGGSGGGGSEVQLLESGGGLVQPGGSLRLSCAASGFTFSSRGMSWVRQAPGKCLEWVSFISSSGTYVYYADSVKGRFTISRDNSKNTLYLQMNSLRAEDTAVYYCARDLPRTGVYFGMDVWGQGTTVTVSSGGGGSGGGGSGGGGSGGGGSDIQMTQSPSSLSASVGDRVTITCRASQSIFNYLNWYQQKPGKAPKLLIYGASTLQSGVPSRFSGSGSGTDFTLTISSLQPEDFATYYCQESYSTPYTFGCGTKVEIK
light: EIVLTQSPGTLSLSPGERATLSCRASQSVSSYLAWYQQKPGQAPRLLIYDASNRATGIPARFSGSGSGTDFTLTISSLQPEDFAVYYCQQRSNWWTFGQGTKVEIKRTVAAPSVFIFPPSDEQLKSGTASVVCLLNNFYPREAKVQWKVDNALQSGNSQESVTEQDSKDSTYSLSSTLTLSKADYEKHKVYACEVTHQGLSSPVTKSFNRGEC
notes: 2+1 format: two anti-CD40 9H3 Fabs on an IgG1 Fc with L234A, L235A, D265S and heterodimerization mutations; Ratio 1:1:2
binding result (FcγRIIA (CD32a)): no binding
binding result (FcγRIIIA (CD16a)): no binding
binding result (FcγRIIB (CD32b)): no binding
binding result (FcγRIIIB (CD16b)): no binding
binding result (FcγRI (CD64)): no binding
Kd [1]: 97 nM
koff [1]: 0.0052 s⁻¹
kon [1]: 53000 M⁻¹ s⁻¹
EC50 (human FAP on cells): 3.72 nM
EC50 (human CD40 on cells [2]): 11.9 nM
EC50 (human CD40 on cells [3]): 7.53 nM
